Data as given in patent US20120128626A1 (ALDERBIO, published 2012).

What was measured:
Test in all cases: cell-based or functional assay
Rat IL-6 = molecular target: T1, Rat IL-6 (rat, UniProt P20607 25-211)
T1 sequence (looked up): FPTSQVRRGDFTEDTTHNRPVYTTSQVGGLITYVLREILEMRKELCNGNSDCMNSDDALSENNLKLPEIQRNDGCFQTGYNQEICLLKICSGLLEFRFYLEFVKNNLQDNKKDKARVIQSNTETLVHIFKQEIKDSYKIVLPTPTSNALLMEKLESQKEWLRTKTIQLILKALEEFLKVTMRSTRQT

Mouse IL-6 = molecular target: T2, Mouse IL-6 (mouse, UniProt P08505 25-211)
T2 sequence (looked up): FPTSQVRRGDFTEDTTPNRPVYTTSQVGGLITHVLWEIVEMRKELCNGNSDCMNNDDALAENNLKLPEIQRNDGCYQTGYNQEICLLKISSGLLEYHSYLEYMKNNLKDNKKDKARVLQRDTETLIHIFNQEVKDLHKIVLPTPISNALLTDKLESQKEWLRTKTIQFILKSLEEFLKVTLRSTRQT

Cynomolgus monkey IL-6 = molecular target: T3, Cynomolgus monkey IL-6 (cynomolgus monkey, UniProt P79341 28-212, limits assumed)
T3 sequence (looked up): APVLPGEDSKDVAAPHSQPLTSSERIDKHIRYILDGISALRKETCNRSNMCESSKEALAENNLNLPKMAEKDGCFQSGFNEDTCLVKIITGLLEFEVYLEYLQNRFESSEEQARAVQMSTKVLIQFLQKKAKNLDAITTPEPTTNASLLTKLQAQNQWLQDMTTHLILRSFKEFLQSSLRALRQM

Human IL-6 = Human IL-6 (human, UniProt P05231 30-212)

B1: Ab1 (antibody, human IgG1, kappa, N297A, V domains shown)
VH: EVQLVESGGGLVQPGGSLRLSCAASGFSLSNYYVTWVRQAPGKGLEWVGIIYGSDETAYATSAIGRFTISRDNSKNTLYLQMNSLRAEDTAVYYCARDDSSDWDAKFNLWGQGTLVTVSS
VL: AIQMTQSPSSLSASVGDRVTITCQASQSINNELSWYQQKPGKAPKLLIYRASTLASGVPSRFSGSGSGTDFTLTISSLQPDDFATYYCQQGYSLRNIDNAFGGGTKVEIKR
Rat IL-6
  IC50, inhibition of IL-6-stimulated T1165 cell proliferation: 2.06 nM
Mouse IL-6
  IC50, inhibition of IL-6-stimulated T1165 cell proliferation: 1.84 nM
Cynomolgus monkey IL-6
  IC50, inhibition of IL-6-stimulated T1165 cell proliferation: 0.012 nM
Human IL-6
  IC50, inhibition of IL-6-stimulated T1165 cell proliferation: 0.013 nM
